The values that follow come from IntAct's records for PubMed 27951647.

Sequences and labels used below:
B1: Acid stress protein IbaG (Escherichia coli (strain K12)), P0A9W6 (parent)
chain: MENNEIQSVLMNALSLQEVHVSGDGSHFQVIAVGELFDGMSRVKKQQTVYGPLMEYIADNRIHAVSIKAYTPAEWARDRKLNGF
partner: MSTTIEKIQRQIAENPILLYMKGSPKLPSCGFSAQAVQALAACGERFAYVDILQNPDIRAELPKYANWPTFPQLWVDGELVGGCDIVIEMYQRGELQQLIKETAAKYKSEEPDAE

The variants in the experiment derive from B1. Conditions: with glrx4_ecoli grxD.
MENNEIQSVLMNALSLQEVHVSGDGSHFQVIAVGELFDGMSRVKKQQTVYGPLMEYIADNRICAVSIKAYTPAEWARDRKLNGF: the “effect of a mutation on the interaction” value is “with no effect”.

Turning to MENNEIQSVLMNALSLQEVHVSGDGSHFQVIAVGELFDGMSRVKKQQTVYGPLMEYIADNRIAAVSIKAYTPAEWARDRKLNGF, the “effect of a mutation on the interaction” value is “with no effect”.

Regarding MENNEIQSVLMNALSLQEVHVSGDGAHFQVIAVGELFDGMSRVKKQQTVYGPLMEYIADNRIHAVSIKAYTPAEWARDRKLNGF, the “effect of a mutation on the interaction” value is given as “with no effect”.

For the variant MENNEIQSVLMNALSLQEVHVSGDGSAFQVIAVGELFDGMSRVKKQQTVYGPLMEYIADNRIHAVSIKAYTPAEWARDRKLNGF, the “effect of a mutation on the interaction” value is “with no effect”.

For MENNEIQSVLMNALSLQEVHVSGDGSCFQVIAVGELFDGMSRVKKQQTVYGPLMEYIADNRIHAVSIKAYTPAEWARDRKLNGF, the “effect of a mutation on the interaction” value is “with no effect”.
